Laboratory results: article PMC5656322, “BAK1 is involved in AtRALF1-induced inhibition of root cell expansion” (PLoS Genetics, 2017)
Where no end group is shown, it is not given here.

Assay: ITC of AtRALF1 into buffer
Assay type: physicochemical
Conditions: AtRALF1 0.7 mM injected in 15 mM HEPES, pH 6.8, 25°C (S15A Fig)
Experimental: ITC was performed using a VP ITC with a 1.4 ml standard cell and a 293 μl titration syringe. Proteins were dissolved in ITC buffer (15 mM HEPES (4-(2-hydroxyethyl)-1-piperazineethanesulfonic acid, pH 6.8) and the experiments were performed at 25°C. Molar protein concentration for BAK1-ECD and AtRALF1 were calculated using their molecular weight of 25,654.04 and 7,631 Da, respectively (determined by HPLC). The concentrations for the complex titrations were 0.7 mM of protein (BAK1-ECD) in the syringe and 0.03 mM of ligand (AtRALF1) in the cell at time intervals of 300 s (28 injections of volume 10 μl) to ensure that the titration peak returned to the baseline.
Supplementary file pgen.1007053.s015.pdf: S15 Fig Isothermal titration calorimetry (ITC) of AtRALF1 and BAK1-ECD. (A) AtRALF1 in 15mM HEPES, pH 6.8. ITC experiments were simulated using the following parameters: 28 injections of AtRALF1 (0.7 mM, volume 10 μL) in HEPES (volume cell = 1.4 mL) at 25°C. (B) BAK1-ECD in 15mM HEPES, pH 6.8. ITC experiments were simulated using the following parameters: 28 injections of BAK1-ECD (0.7 mM, volume 10 μL) in HEPES (volume cell = 1.4 mL) at 25°C. (C) HEPES in AtRALF1. ITC experiments were simulated using the following parameters: 28 injections of buffer 15mM HEPES, pH 6.8 (volume 10 μL) in AtRALF1 (0.03 mM, volume cell = 1.4 mL) at 25°C. (PDF) Click here for additional data file.

AtRALF1: root-specific RALF isoform in Arabidopsis; recombinant peptide hormone produced in E. coli (ATTKYISYQSLKRNSVPCSRRGASYYNCQNGAQANPYSRGCSKIARCRS; ends and bridges not checked; cysteine pairing not given here)
heat of dissociation: exhibits heat of dissociation
